Results: paper PMC6607443, “Systematic identification of recognition motifs for the hub protein LC8” (Life Science Alliance, 2019)

B1: bassoon (BSN) peptide, modified version with the TQT motif near the C-terminus (peptide)
peptide: PRATAEFSTQTPSP
notes: also called BSN^II; modified BSN peptide

Biological target: dynein light chain LC8 (UniProt P63167 1-89)
Assay: ITC; peptide (500 μM) injected into 25 μM LC8 in the cell; 25°C; 50 mM sodium phosphate, 50 mM NaCl, 1 mM sodium azide, 5 mM β-mercaptoethanol, pH 7.5; single-site model; averages of two to three experiments
Details: both partners purified

dynein light chain LC8, sequence (P63167 whole entry): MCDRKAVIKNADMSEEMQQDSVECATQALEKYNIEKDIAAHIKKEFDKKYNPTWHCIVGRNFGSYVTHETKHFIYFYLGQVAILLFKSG

Binder | stoichiometry N [peptide per LC8 chain] | Kd [µM]
YSRKSRCVSVQTDPT [SON peptide] | 1 | –
EKELRHIGTQISSD [ICE1 peptide] | 1 | –
GQGAALTTATQTTHLE [GP1BA peptide] | – | > 25
YGCTRHQSVQTEDG [MAST1 peptide] | 1 | –
QDFMKHLDKKTQTPKL [CCL7 peptide] | 1 | –
SSSTRSIDTQTPSV [GLCCI1 peptide] | 1 | –
DDSGGNATTQTTSD [ROR1 peptide] | – | > 25
SKTQQTFGSQTECT [TOGARAM1 peptide] | – | > 25
SPSPTGLPTQTPGF [ARAP3 peptide] | – | > 25
AKESCNMETQTSST [OFD1 peptide] | 1 | –
DDHSREKGTQTSGD [SLC9A2 peptide] | 1 | –
PAPPSYSDKGVQTPSK [ZFPM1 peptide] | 1 | –
PVLTSATGTQTSPA [MUC3A peptide] | 1 | –
DDNHWTRSTQTTRE [MUC4 peptide with N-terminal aspartates (DDNHWTRSTQTTRE)] | 1 | –
APMSCDKSTQTPSP [BCL2L11 peptide] | 1 | 0.16
NQSFTTASTQTPPQ [CAPRIN2 peptide] | 1 | –
HPETQDSSTQTDTS [SPAG5 peptide] | 1 | –
SQNHWTRSTQTTRE [MUC4 peptide (SQNHWTRSTQTTRE)] | 1 | –
B1 | 1 | –
YDSMDHLDKQTQTPKT [CCL2 peptide] | 1 | –
ARAGRSVSTQTGSM [CIZ1 peptide] | 1 | –
